Four molecules from patent US6468985B1, “Retinoblastoma protein-interacting zinc finger proteins” (The Burnham Institute, priority 1994, dated 2002) can be followed below.

One test concerns the target T1, RIZ (Rattus norvegicus, UniProt Q63755).
T1 construct: made in house; host or cells: in vitro transcription/translation (rabbit reticulocyte lysate)
T1 sequence (Q63755 1-318): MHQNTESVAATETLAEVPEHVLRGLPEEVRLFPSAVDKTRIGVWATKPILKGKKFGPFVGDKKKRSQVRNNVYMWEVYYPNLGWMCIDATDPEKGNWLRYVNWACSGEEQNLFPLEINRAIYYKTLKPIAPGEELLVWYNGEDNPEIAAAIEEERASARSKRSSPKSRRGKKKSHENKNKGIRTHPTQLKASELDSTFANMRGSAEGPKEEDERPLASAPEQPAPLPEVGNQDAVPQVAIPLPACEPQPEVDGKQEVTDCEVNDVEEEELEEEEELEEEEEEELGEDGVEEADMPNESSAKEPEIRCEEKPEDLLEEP
The experiment in a line: binding of anti-RIZ antiserum / anti-ce1 antibody to RIZ and RIZ truncation mutants.

The target of another test is E1A 12S (Human adenovirus C serotype 5, UniProt P03255).
Sequence of E1A 12S (P03255 1-139, added parts left off): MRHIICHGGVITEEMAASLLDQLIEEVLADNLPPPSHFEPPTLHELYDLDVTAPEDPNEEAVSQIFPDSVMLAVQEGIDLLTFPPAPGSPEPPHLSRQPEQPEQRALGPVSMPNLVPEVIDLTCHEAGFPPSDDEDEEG
A further test deals with T2, p56EERb (Homo sapiens, UniProt P06400).
T2 construct: p56 Rb: 56 kD fragment of Rb from a.a. position 379-928; made in house; host or cells: E. coli BL21(DE3)pLysS
T2 sequence (P06400 379-928): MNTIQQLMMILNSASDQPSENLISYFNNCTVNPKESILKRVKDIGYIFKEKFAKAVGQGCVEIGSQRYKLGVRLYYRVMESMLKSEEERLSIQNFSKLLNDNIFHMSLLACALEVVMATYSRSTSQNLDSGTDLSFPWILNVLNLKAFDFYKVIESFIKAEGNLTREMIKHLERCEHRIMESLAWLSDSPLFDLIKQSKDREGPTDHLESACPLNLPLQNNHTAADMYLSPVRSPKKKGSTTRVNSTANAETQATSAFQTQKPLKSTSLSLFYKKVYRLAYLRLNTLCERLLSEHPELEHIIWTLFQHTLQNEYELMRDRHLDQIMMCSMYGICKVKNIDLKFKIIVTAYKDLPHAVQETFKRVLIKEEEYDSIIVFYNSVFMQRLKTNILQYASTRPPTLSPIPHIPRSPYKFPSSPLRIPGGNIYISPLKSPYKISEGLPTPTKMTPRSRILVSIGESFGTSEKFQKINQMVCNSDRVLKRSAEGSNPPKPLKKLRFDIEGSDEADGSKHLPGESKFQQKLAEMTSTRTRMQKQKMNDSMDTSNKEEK
The experiment in a line: cDNA expression library filter screening with p56EERb, binding-specificity control. The conditions noted are these: p56EERb preincubated with 5 μM poly-L-lysine or 50 μM T- or K-peptide. As to the method: A rat RIZ cDNA was obtained from a rat neonatal cardiac myocyte λgt11 cDNA expression library (Zhu et al., Mol. Cell Biol., 13:4432 (1993), which is incorporated herein by reference). The library was screened using a 56 kD fragment containing the pocket binding site of Rb and the EE epitope (p56EERb) according to previously described methods (Macgregor et al., Oncogene, 5:451-458 (1991), which is incorporated herein by reference).
For binding-specificity control, p56EERb was preincubated with 5 μM poly-L-lysine (Sigma) or 50 μM T- or K-peptide (Huang et al., supra, 1991) before applying onto filters. T peptide is an 18 residue synthetic peptide derived from residues 101-118 of SV40 large T antigen, while K peptide is the same as T peptide except for a lysine residue substituted for a glutamic acid residue at position 107 of SV40 large T antigen (Huang et al., supra, 1991).
The binding of p56EERb to a clone expressing a RIZ protein was detected using an anti-EE monoclonal antibody obtained as spent culture medium of the anti-EE hybridoma (Walter, supra, 1986) and an alkaline phosphatase conjugated goat anti-mouse IgG antibody specific for mouse immunoglobulin (Promega; Madison Wis.).

For test [1], the target named is 35S-labeled full length RIZ (rat, UniProt Q63755 1-1706, 35S label). The experiment in a line: GST fusion protein with in vitro translated labeled protein.
Test [2] addresses T3, hypophosphorylated Rb (pRb) from HT1080 cell extract (UniProt P06400 2-928, hypophosphorylated form).
T3 construct: Endogenous protein in a cell lysate; also called Rb from HT1080 cells; fastest migrating forms of Rb
T3 sequence (looked up): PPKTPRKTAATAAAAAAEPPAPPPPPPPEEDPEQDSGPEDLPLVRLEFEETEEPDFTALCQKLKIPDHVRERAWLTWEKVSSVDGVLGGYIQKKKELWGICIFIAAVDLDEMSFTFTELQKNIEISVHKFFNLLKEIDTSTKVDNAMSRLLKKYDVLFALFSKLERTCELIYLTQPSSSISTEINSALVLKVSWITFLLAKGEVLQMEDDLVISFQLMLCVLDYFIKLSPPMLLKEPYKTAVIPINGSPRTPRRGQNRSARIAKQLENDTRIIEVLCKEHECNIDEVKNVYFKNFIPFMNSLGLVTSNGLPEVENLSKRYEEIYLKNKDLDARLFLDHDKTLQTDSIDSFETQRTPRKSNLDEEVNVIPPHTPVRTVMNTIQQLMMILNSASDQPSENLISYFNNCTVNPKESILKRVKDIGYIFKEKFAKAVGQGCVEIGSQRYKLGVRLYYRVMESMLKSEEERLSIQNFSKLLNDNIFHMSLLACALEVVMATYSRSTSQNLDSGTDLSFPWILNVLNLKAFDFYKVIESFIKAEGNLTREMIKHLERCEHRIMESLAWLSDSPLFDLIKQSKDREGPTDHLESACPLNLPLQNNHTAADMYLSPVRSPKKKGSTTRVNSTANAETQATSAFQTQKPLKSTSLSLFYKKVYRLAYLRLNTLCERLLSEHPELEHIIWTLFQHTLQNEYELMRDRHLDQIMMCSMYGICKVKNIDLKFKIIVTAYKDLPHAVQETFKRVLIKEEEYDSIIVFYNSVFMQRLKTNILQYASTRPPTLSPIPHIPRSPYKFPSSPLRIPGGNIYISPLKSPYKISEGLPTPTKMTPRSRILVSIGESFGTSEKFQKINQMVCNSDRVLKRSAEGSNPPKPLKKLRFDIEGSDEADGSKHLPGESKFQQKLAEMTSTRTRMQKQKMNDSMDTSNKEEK
The experiment in a line: glutathione-agarose pull-down from HT1080 cell extract with 4 ug GST-RIZ; anti-Rb immunoblot.
Protocol: The cells were grown in DMEM supplemented with 100 fetal calf serum. Cells were lysed in ELB buffer (50 mM HEPES, pH 7.5, 250 mM NaCl, 0.1% NP-40) supplemented with 5 mM EDTA, 50 mM NaF, 1 mM Na orthovanadate, 1 mM of DTT, aprotinin, leupeptin, and PMSF. The lysate was cleared of cell debris by centrifugation at 12,000 rpm for 10 min in a microfuge.

The next test deals with T4, 35S-RIZ (1-575)^307-Gly (rat, UniProt Q63755 1-575, 35S label).
T4 construct: In vitro transcribed/translated; also called glycine mutant; cr2 mutant
T4 sequence: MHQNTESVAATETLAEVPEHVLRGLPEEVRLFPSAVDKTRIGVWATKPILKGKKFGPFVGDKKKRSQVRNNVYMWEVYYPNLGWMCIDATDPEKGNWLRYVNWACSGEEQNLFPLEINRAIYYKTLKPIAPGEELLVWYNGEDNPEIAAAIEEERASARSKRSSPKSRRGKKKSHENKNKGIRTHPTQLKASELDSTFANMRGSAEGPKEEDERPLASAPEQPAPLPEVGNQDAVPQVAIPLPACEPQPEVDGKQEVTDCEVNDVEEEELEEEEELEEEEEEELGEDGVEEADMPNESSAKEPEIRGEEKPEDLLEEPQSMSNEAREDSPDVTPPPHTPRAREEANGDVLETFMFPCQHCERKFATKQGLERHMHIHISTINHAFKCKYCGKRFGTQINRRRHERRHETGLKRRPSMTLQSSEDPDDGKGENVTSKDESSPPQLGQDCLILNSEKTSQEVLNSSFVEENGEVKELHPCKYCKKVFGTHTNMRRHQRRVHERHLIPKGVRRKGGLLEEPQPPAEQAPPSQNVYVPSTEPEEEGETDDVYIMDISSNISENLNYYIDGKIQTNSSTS
The experiment in a line: immunoprecipitation with anti-Rb antiserum, SDS-PAGE, autoradiography.

Protocol for E1A 12S: To investigate this relationship further, the anti-RIZ antiserum raised against the GST-RIZ (245-573) fusion protein containing the cr2, ce1 and part of the cr1 motifs, was tested for cross reactivity with E1A. For these experiments, E1A was labeled with ^35S-methionine during in vitro transcription/translation using methods described above.
To further verify binding between anti-RIZ and E1A, the cross reactive antibodies from the anti-RIZ antiserum were purified by affinity chromatography on a column containing E1A 12S protein.
E1A 12S, truncated at residue 223 (E1A223) was produced by generating a PCR fragment of E1A using an upstream SP6 primer (Stratagene) a downstream E1A primer 5′-[sequence] […] The resulting PCR fragment was cloned into pCRSK+, which was used to direct the synthesis of the mutant E1A 12S protein by SP6 in vitro transcription/translation. The full length E1A 12S (E1A243) was produced from vector pGEM1Ad5E1A12S by in vitro transcription/translation as described above for the other vectors.
The regions of RIZ and E1A 12S that contain the ce1 epitope show significant amino acid sequence homology (FIG. 2A). The sequence ^312EDLLEE (SEQ ID NO: 20) in RIZ and the sequence ^224EDLLNE (SEQ ID NO: 21) in E1A are likely sites for the ce1 epitope. To evaluate this possibility, an 11 amino acid peptide encompassing residues 310-320 in RIZ (ce1 peptide) [sequence] […]

With KPEDLLEEPQS [ce1 peptide], the “inhibition of binding between anti-ce1 antibody and 35S-RIZ318” value in the test with RIZ is on record as “inhibited binding”. Also, the “inhibition of binding between anti-ce1 antibody and 35S-E1A 12S (E1A243)” value in the test with E1A 12S was “inhibited binding”.
Take poly-L-lysine: the “inhibition of binding of p56EERb to RIZ-expressing clones” value on p56EERb is reported as “maintained their reactivity”.

B1: purified rat RIZ (a.a. position 215-462) fused C-terminal to glutathionine S-transferase (GST) (other)
chain: PLASAPEQPAPLPEVGNQDAVPQVAIPLPACEPQPEVDGKQEVTDCEVNDVEEEELEEEEELEEEEEEELGEDGVEEADMPNESSAKEPEIRCEEKPEDLLEEPQSMSNEAREDSPDVTPPPHTPRAREEANGDVLETFMFPCQHCERKFATKQGLERHMHIHISTINHAFKCKYCGKRFGTQINRRRHERRHETGLKRRPSMTLQSSEDPDDGKGENVTSKDESSPPQLGQDCLILNSEKTSQEVLN
notes: not shown: glutathione S-transferase
On to B1, for which the binding result is recorded as “no binding” in test [1] and “binds” in test [2].

B2: 56 kD fragment of Rb produced by bacterial expression from p56Rb plasmid (other, UniProt P06400 379-928, looked up)
chain: T2 sequence (P06400 379-928)
notes: range 379-928; Expressed in E. coli; also called 56 kD Rb
Consider B2, for which the binding result in the test with 35S-RIZ (1-575)^307-Gly is listed as “no binding (tested: 33 nM Rb)”.
